Experimental findings from publication PMC6436931, “Activation of the Endonuclease that Defines mRNA 3′ Ends Requires Incorporation into an 8-Subunit Core Cleavage and Polyadenylation Factor Complex” (Molecular Cell, 2019) are described below.

Sequences and labels used below:
T1: Cft2 (Saccharomyces cerevisiae, UniProt Q12102 1-859)
T1 sequence: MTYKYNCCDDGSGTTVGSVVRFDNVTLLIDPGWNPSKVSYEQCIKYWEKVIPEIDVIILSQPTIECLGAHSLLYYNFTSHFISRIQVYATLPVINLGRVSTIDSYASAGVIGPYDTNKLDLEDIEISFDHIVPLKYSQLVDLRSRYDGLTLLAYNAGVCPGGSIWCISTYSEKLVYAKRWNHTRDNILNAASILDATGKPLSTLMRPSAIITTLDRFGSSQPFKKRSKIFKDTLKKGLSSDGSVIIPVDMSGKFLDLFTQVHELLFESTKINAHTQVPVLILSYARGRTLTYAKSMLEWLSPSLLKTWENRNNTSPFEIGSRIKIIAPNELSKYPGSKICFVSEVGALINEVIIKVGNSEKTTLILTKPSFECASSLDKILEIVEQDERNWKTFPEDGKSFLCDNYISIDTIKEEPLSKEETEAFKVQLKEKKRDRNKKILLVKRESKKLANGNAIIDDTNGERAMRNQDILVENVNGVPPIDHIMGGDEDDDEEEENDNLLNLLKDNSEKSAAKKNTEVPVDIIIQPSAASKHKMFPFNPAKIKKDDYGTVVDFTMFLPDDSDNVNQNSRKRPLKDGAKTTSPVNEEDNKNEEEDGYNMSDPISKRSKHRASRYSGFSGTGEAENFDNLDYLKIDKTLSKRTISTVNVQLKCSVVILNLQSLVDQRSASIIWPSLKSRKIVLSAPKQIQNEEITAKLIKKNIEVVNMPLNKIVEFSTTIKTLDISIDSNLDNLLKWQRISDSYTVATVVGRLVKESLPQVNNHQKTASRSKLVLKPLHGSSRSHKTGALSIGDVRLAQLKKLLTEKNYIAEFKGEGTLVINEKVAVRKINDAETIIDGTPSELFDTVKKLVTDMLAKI

T2: Hrp1 (CF IB) (Saccharomyces cerevisiae, UniProt Q99383 1-534)
T2 sequence: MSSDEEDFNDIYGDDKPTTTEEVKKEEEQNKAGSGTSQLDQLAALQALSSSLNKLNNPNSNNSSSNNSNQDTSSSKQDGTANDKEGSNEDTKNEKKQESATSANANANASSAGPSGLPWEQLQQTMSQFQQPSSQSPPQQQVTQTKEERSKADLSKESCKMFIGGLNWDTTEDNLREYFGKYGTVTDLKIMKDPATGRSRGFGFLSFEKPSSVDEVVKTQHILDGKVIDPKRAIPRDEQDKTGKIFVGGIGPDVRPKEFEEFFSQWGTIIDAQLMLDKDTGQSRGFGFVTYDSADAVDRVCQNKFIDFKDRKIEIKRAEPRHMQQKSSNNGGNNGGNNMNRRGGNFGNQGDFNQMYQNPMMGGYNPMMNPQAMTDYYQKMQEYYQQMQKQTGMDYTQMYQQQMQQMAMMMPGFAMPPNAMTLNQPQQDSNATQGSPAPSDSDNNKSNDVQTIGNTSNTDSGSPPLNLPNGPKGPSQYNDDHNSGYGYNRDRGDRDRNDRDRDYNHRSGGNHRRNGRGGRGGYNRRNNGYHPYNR

B1: A15 (ssRNA)
RNA: AAAAAAAAAAAAAAA
B2: C15 (ssRNA)
RNA: CCCCCCCCCCCCCCC
B3: G15 (ssRNA)
RNA: GGGGGGGGGGGGGGG
B4: U15 (ssRNA)
RNA: UUUUUUUUUUUUUUU
B5: CYC1d EMSA probe (ssRNA)
RNA: AAGAACGUUAUUUAUAUUUCAAAUUUUUCUUUUUU
B6: CYC1f EMSA probe (ssRNA)
RNA: CGUUAUUUAUAUUUCAAAUUUUUCU
B7: Rna14-Rna15 complex (6H-Rna14-Rna15) (complex, S. cerevisiae)
chain 1: MSSSTTPDLLYPSADKVAEPSDNIHGDELRLRERIKDNPTNILSYFQLIQYLETQESYAKVREVYEQFHNTFPFYSPAWTLQLKGELARDEFETVEKILAQCLSGKLENNDLSLWSTYLDYIRRKNNLITGGQEARAVIVKAFQLVMQKCAIFEPKSSSFWNEYLNFLEQWKPFNKWEEQQRIDMLREFYKKMLCVPFDNLEKMWNRYTQWEQEINSLTARKFIGELSAEYMKARSLYQEWLNVTNGLKRASPINLRTANKKNIPQPGTSDSNIQQLQIWLNWIKWERENKLMLSEDMLSQRISYVYKQGIQYMIFSAEMWYDYSMYISENSDRQNILYTALLANPDSPSLTFKLSECYELDNDSESVSNCFDKCTQTLLSQYKKIASDVNSGEDNNTEYEQELLYKQREKLTFVFCVYMNTMKRISGLSAARTVFGKCRKLKRILTHDVYVENAYLEFQNQNDYKTAFKVLELGLKYFQNDGVYINKYLDFLIFLNKDSQIKTLFETSVEKVQDLTQLKEIYKKMISYESKFGNLNNVYSLEKRFFERFPQENLIEVFTSRYQIQNSNLIKKLELTYMYNEEEDSYFSSGNGDGHHGSYNMSSSDRKRLMEETGNNGNFSNKKFKRDSELPTEVLDLLSVIPKRQYFNTNLLDAQKLVNFLNDQVEIPTVESTKSG
chain 2: MNRQSGVNAGVQNNPPSRVVYLGSIPYDQTEEQILDLCSNVGPVINLKMMFDPQTGRSKGYAFIEFRDLESSASAVRNLNGYQLGSRFLKCGYSSNSDISGVSQQQQQQYNNINGNNNNNGNNNNNSNGPDFQNSGNANFLSQKFPELPSGIDVNINMTTPAMMISSELAKKPKEVQLKFLQKFQEWTRAHPEDAVSLLELCPQLSFVTAELLLTNGICKVDDLIPLASRPQEEASATNNNSVNEVVDPAVLNKQKELLKQVLQLNDSQISILPDDERMAIWDLKQKALRGEFGAF
notes: Rna14, S. cerevisiae; Rna15, S. cerevisiae; The pull-down methods call the prey 'untagged' though the construct carries a His6 tag; also called Rna14–15; source: E. coli BL21 Star (DE3), purified as described previously (Gordon et al., 2011)

Sequence of Pap1 (P29468 whole entry): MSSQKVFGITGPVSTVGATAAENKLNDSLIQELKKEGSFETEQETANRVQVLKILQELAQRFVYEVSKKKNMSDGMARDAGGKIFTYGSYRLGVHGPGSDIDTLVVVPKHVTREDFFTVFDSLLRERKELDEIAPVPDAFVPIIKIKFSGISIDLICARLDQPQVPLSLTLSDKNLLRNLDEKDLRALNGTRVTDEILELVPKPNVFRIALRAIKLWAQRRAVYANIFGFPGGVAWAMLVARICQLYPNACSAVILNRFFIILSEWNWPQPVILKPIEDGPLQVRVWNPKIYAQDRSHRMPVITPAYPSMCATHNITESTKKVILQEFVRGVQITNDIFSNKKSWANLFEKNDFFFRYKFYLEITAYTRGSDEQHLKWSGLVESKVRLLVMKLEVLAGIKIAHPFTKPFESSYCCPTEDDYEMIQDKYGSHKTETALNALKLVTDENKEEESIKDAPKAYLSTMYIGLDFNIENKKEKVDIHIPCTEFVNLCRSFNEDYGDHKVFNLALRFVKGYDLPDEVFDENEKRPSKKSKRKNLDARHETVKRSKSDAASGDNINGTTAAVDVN

The target in one data set is T1, Cft2. In words: EMSA; EMSA: 50 nM RNA, 0.25-4.0 uM protein, protein diluted in 10 mM HEPES pH 7.9, 150 mM NaCl, 0.5 mM Mg(OAc)2, plus 1x loading dye (orange G, glycerol, EDTA); 30 min on ice; native 6% acrylamide/TBE PAGE. The settings on record: protein: recombinant; tags: SII (Cft2-SII) when alone; untagged in CPFpol+Cft2 and CPFcore; label: 5'-FAM.
Regarding B1, the binding result is listed as “no binding”.
Turning to B2, the binding result is on record as “no binding”.
B3: the binding result is reported as “binds”.
Same read-out and setting: in the case of B4 it was “no binding”; in that of B5, “binds”.
Consider B6, for which the binding result is “binds”.

A further data set addresses Pap1 (Saccharomyces cerevisiae, UniProt P29468 1-568). The data set is described as above. Conditions: protein: recombinant; tags: SII (Pap1-SII) when alone; untagged in CPFpol and CPFcore; label: 5'-FAM.
B1: the binding result was “no binding”.
On the same count and under the same terms, in the case of B2 it was “no binding”; in that of B3, “no binding”.
Still for that read-out and setting: in the case of B4 it was “no binding”.
The same measure, in the same setting: then B5, with “no binding”; and B6, with “no binding”.

Another data set concerns the target T2, Hrp1 (CF IB). Described as above. Conditions: protein: recombinant; tags: 6H (6H-Hrp1); label: 5'-FAM.
Take B2: the binding result is recorded as “no binding”.
Still for that read-out and setting: then B3, with “binds”; and B4, with “binds”.
B5: the binding result is reported as “binds”.
For B6, the binding result is “binds”.

The next data set deals with T3, CPF_(core): Cft1-Pfs2_(-3C-SII)-Yth1_(-3C-8H)-Fip1-Pap1-Cft2-Ysh1-Mpe1 (S. cerevisiae, UniProt Q06632 1-1357; P42841 1-465; Q06102 1-208; P45976 1-327; P29468 1-568; Q12102 …).
T3 construct: Cft1, S. cerevisiae; Pfs2, S. cerevisiae; Yth1, S. cerevisiae; Fip1, S. cerevisiae; Pap1, S. cerevisiae; Cft2, S. cerevisiae; Ysh1, S. cerevisiae; Mpe1, S. cerevisiae; also called eight-subunit core cleavage and polyadenylation factor complex; source: Sf9, co-expressed from one multi-gene baculovirus construct, purified (StrepTactin, Mono Q, Superose 6); not shown: StrepII, C-terminal, kept; …
As to the kind of experiment: pull-down; Strep-tagged bait proteins and complexes (100 μL at 1.5 μM) immobilised on Streptactin beads; prey CF IA, CF IB, Rna14-Rna15 or Pcf11-Clp1 (20 μL at 4.0 μM) bound 60 min at 4°C; 10 mM HEPES pH 7.9, 150 mM NaCl, 0.5 mM Mg(OAc)2, 0.05% Tween-20; SDS-PAGE, InstantBlue. Conditions: both partners purified.
Take B7: the binding result is given as “binds”.

For another data set, the target named is T4, CPFpol: Cft1-Pfs2_(-3C-SII)-Yth1_(-3C-8H)-Fip1-Pap1 (S. cerevisiae, UniProt Q06632 1-1357; P42841 1-465; Q06102 1-208; P45976 1-327; P29468 1-568).
T4 construct: Cft1, S. cerevisiae; Pfs2, S. cerevisiae; Yth1, S. cerevisiae; Fip1, S. cerevisiae; Pap1, S. cerevisiae; also called polymerase module; source: Sf9, purified as described previously (Casañal et al., 2017); not shown: StrepII, C-terminal, kept; copies: + + + +
Described as above. Conditions: both partners purified.
As for B7, the binding result is “binds”.

For a further data set, the target named is T5, CPFpol (no Pap1): Cft1-Pfs2_(-3C-SII)-Yth1_(-3C-8H)-Fip1 (S. cerevisiae, UniProt Q06632 1-1357; P42841 1-465; Q06102 1-208; P45976 1-327).
T5 construct: Cft1, S. cerevisiae; Pfs2, S. cerevisiae; Yth1, S. cerevisiae; Fip1, S. cerevisiae; also called polymerase module without Pap1; source: Sf9, purified as described previously (Casañal et al., 2017); not shown: StrepII, C-terminal, kept; copies: + + +
T5 sequence (Q06632 whole entry, chain 1 of 4): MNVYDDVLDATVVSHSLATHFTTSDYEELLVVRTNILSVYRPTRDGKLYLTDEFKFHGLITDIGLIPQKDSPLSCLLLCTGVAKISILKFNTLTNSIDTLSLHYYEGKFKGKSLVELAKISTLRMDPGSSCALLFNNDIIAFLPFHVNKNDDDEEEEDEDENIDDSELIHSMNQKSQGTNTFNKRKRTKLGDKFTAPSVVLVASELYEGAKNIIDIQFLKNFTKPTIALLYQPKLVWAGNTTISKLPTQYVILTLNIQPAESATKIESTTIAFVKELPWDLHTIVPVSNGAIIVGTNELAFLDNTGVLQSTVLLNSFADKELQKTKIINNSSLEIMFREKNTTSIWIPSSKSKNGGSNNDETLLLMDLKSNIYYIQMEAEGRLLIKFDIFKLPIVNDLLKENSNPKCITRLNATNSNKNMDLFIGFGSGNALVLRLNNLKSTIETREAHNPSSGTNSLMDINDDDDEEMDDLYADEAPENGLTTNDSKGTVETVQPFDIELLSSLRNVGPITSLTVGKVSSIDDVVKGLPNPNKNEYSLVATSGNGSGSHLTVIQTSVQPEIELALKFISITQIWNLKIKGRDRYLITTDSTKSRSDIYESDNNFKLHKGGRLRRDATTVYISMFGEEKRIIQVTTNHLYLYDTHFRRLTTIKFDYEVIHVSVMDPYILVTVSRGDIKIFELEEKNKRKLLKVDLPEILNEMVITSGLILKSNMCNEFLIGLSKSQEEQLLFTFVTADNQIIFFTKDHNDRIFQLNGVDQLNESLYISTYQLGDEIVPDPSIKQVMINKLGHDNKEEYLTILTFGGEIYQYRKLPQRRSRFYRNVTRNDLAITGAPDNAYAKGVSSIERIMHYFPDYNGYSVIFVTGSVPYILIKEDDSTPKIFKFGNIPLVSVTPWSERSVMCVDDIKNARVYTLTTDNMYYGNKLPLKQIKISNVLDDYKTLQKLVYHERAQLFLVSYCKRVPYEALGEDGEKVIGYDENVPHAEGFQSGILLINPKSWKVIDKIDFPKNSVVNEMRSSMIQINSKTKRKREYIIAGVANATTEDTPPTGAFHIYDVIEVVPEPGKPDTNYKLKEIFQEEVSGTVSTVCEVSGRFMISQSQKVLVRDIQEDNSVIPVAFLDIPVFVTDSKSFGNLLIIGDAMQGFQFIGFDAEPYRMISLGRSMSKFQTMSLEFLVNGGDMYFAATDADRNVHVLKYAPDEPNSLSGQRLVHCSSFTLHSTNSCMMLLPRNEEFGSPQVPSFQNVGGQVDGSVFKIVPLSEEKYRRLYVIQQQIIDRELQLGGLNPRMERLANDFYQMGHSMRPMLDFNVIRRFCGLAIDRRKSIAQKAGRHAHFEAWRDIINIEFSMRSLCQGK
T5 sequence (P42841 whole entry, chain 2 of 4): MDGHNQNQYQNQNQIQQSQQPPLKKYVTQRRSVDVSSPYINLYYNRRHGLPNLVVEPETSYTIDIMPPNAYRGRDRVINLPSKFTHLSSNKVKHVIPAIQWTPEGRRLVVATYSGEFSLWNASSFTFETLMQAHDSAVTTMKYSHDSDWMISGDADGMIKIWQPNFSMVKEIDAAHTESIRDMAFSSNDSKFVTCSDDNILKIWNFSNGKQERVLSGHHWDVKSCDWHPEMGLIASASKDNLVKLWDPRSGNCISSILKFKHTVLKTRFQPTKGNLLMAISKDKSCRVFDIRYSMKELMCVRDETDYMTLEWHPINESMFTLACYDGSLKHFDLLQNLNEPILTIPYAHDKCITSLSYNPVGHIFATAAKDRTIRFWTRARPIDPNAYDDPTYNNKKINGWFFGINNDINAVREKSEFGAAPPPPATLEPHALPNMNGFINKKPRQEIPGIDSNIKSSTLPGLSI
T5 sequence (Q06102 whole entry, chain 3 of 4): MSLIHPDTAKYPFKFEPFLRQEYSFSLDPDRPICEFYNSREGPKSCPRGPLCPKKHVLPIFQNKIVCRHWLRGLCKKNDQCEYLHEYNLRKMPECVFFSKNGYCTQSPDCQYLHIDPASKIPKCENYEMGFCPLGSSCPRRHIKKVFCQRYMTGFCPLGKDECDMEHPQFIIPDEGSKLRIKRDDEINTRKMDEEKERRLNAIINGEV
T5 sequence (P45976 whole entry, chain 4 of 4): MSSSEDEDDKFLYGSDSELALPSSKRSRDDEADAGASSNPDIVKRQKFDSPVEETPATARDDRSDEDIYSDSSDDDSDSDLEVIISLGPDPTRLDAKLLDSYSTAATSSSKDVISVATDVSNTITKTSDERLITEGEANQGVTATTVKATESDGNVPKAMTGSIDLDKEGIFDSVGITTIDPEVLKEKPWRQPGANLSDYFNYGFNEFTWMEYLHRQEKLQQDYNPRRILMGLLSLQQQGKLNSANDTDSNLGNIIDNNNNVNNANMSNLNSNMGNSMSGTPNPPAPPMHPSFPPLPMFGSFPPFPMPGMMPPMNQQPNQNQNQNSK
The data set is described as above. The settings on record: both partners purified.
For B7, the binding result was “binds”.
